Data: patent CN113683688A

Biological target: HIV-1 P24重组蛋白 (原核细胞大肠杆菌表达的HIV-1 P24全长蛋白) (HIV-1) (UniProt P04591)
Test: indirect ELISA, serial two-fold dilution of the antibody

B1: 抗HIV-1 P24兔单克隆抗体OTIR5D12 (antibody, V domains shown)
VH: QSLEESGGRLVTPGTPLTLTCTASGFSLNSYYMTWVRQAPGKGLEWIGILDTSGSTDYASWAKGRFTISKTSTTVDLKVTSPTAADTATYFCARGAYYSAYGDAWGQGTLVTVSS
VL: AQVLTQTPSPVSAVLGGTVTINCQSSQSVYNSNWLSWFQQKPGQPPKLLIYKASNLASGVPSRFKGSGSGTQFTLTISSVQCDDAATYYCQGGYNNGDGFGGGTEVVVK
With B1 the 效价 (antibody titer) was 6.6e+06.
